This is an account of results in the PETadex activity labels (doi:10.1073/pnas.2006753117).

Substrate in this data set: MHET
In words: Proxy for plastic degradation [kcat] (s⁻¹). The note with it: pH 7.5.

B1: unnamed (protein)
chain: MQTTVTTMLLASVALAACAGGGSTPLPLPQQQPPQQEPPPPPVPLASRAACEALKDGNGDMVWPNAATVVEVAAWRDAAPATASAAALPEHCEVSGAIAKRTGIDGYPYEIKFRLRMPAEWNGRFFMEGGGGTNGSLSAATGSIGGGQIASALSRNFATIATDGGHDNAVNDNPDALGTVAFGLDPQARLDMGYNSYDQVTQAGKAAVARFYGRAADKSYFIGCSEGGREGMMLSQRFPSHYDGIVAGAPGYQLPKAGISGAWTTQSLAPAAVGLDAQGVPLINKSFSDADLHLLSQAILGTCDALDGLADGIVDNYRACQAAFDPATAANPANGQALQCVGAKTADCLSPVQVTAIKRAMAGPVNSAGTPLYNRWAWDAGMSGLSGTTYNQGWRSWWLGSFNSSANNAQRVSGFSARSWLVDFATPPEPMPMTQVAARMMKFDFDIDPLKIWATSGQFTQSSMDWHGATSTDLAAFRDRGGKMILYHGMSDAAFSALDTADYYERLGAAMPGAAGFARLFLVPGMNHCSGGPGTDRFDMLTPLVAWVERGEAPDQISAWSGTPGYFGVAARTRPLCPYPQIARYKGSGDINTEANFACAAPP
With B1, the “Proxy for plastic degradation” value amounted to 11.

B2: unnamed (protein)
chain: MQTTVTTMLLASVALAACAGGGSTPLPLPQQQPPQQEPPPPPVPLASRAACEALKDGNGDMVWPNAATVVEVAAWRDAAPATASAAALPEHCEVSGAIAKRTGIDGYPYEIKFRLRMPAEWNGRFFMEGGSGTNGSLSAATGSIGGGQIASALSRNFATIATDGGHDNAVNDNPDALGTVAFGLDPQARLDMGYNSYDQVTQAGKAAVARFYGRAADKSYFIGCSEGGREGMMLSQRFPSHYDGIVAGAPGYQLPKAGISGAWTTQSLAPAAVGLDAQGVPLINKSFSDADLHLLSQAILGTCDALDGLADGIVDNYRACQAAFDPATAANPANGQALQCVGAKTADCLSPVQVTAIKRAMAGPVNSAGTPLYNRWAWDAGMSGLSGTTYNQGWRSWWLGSFNSSANNAQRVSGFSARSWLVDFATPPEPMPMTQVAARMMKFDFDIDPLKIWATSGQFTQSSMDWHGATSTDLAAFRDRGGKMILYHGMSDAAISALDTADYYERLGAAMPGAAGFARLFLVPGMNHCSGGPGTDRFDMLTPLVAWVERGEAPDQISAWSGTPGYFGVAARTRPLCPYPQIARYKGSGDINTEANFACAAPP
B2: the “Proxy for plastic degradation” value worked out at 1.3.

B3: unnamed (protein)
chain: MQTTVTTMLLASVALAACAGGGSTPLPLPQQQPPQQEPPPPPVPLASRAACEALKDGNGDMVWPNAATVVEVAAWRDAAPATASAAALPEHCEVSGAIAKRTGIDGYPYEIKFRLRMPAEWNGRFFMEGGSGTNGSLSAATGSIGGGQIASALSRNFATIATDGGHDNAVNDNPDALGTVAFGLDPQARLDMGYNSYDQVTQAGKAAVARFYGRAADKSYFIGCAEGGREGMMLSQRFPSHYDGIVAGAPGYQLPKAGISGAWTTQSLAPAAVGLDAQGVPLINKSFSDADLHLLSQAILGTCDALDGLADGIVDNYRACQAAFDPATAANPANGQALQCVGAKTADCLSPVQVTAIKRAMAGPVNSAGTPLYNRWAWDAGMSGLSGTTYNQGWRSWWLGSFNSSANNAQRVSGFSARSWLVDFATPPEPMPMTQVAARMMKFDFDIDPLKIWATSGQFTQSSMDWHGATSTDLAAFRDRGGKMILYHGMSDAAFSALDTADYYERLGAAMPGAAGFARLFLVPGMNHCSGGPGTDRFDMLTPLVAWVERGEAPDQISAWSGTPGYFGVAARTRPLCPYPQIARYKGSGDINTEANFACAAPP
For B3, the “Proxy for plastic degradation” value came to 0.

B4: unnamed (protein)
chain: MQTTVTTMLLASVALAACAGGGSTPLPLPQQQPPQQEPPPPPVPLASRAACEALKDGNGDMVWPNAATVVEVAAWRDAAPATASAAALPEHCEVSGAIAKRTGIDGYPYEIKFRLRMPAEWNGRFFMEGGSGTNGSLSAATGSIGGGQIASALSRNFATIATDGGHDNAVNDNPDALGTVAFGLDPQARLDMGYNSYDQVTQAGKAAVARFYGRAADKSYFIGCSTGGREGMMLSQRFPSHYDGIVAGAPGYQLPKAGISGAWTTQSLAPAAVGLDAQGVPLINKSFSDADLHLLSQAILGTCDALDGLADGIVDNYRACQAAFDPATAANPANGQALQCVGAKTADCLSPVQVTAIKRAMAGPVNSAGTPLYNRWAWDAGMSGLSGTTYNQGWRSWWLGSFNSSANNAQRVSGFSARSWLVDFATPPEPMPMTQVAARMMKFDFDIDPLKIWATSGQFTQSSMDWHGATSTDLAAFRDRGGKMILYHGMSDAAFSALDTADYYERLGAAMPGAAGFARLFLVPGMNHCSGGPGTDRFDMLTPLVAWVERGEAPDQISAWSGTPGYFGVAARTRPLCPYPQIARYKGSGDINTEANFACAAPP
Turning to B4, the “Proxy for plastic degradation” value was 14.

B5: unnamed (protein)
chain: MFVRNADRAKNCMRAPLRVFPLKDTFSAQCANVSVWITSSVPPLRERHMDRRVTRRDLMQTRILLMLIAATGVAACGGDGGSTPAAQNPPLPLASRAACEAFQGNSNSIAWPHRATVVEVATWHEAEPANATAAATPEHCEISGAIARRTGIDGYPYEIKFRLRMPSEWNGRFFMEGGGGTNGSLSAATGSLGGGQTASALSRNFATIATDGGHDNAVNNNPDALGTVAFGMDPQARIDMGYNSYDQVTQAGKAAVAQFYGRAPDKSYFIGCSEGGREGMMLSQRFPSHYDGIVAGAPGYQLPKAGISGAWTTQSLAPAAVGVDAQNVPLINKAFSDVDLHLLSRGILGTCDALDGLSDGIVNDFRACQAAFDPATALNPDTSQPLQCTGAKTPDCLSAAQVTGIKRAMGGPVDSAGAALYNRWAWDPGMSGLNGTSYNQGWRSWWLGSYASSTNNAQRVNGFSARSWLVDFATPPEPMPVTQVAARMMNFNFDTDPPKIRATSGPFTPSSMEWHGATSTNLAAFRDRGGKLMLYHGMSDAAFSALDTADYYERLGAAMPGAAGFARLFLVPGMNHCSGGPGTDRFDMLTPLVAWVERDKAPDQVSAWAGTPGYFGATARTRPLCPYPQIARYKGSGDINAEASFVCVAP
B5: the “Proxy for plastic degradation” value was 9.5.

B6: unnamed (protein)
chain: MNFPRASRLMQAAVLGGLMAVSAAATAQTNPYARGPNPTAASLEASAGPFTVRSFTVSRPSGYGAGTVYYPTNAGGTVGAIAIVPGYTARQSSIKWWGPRLASHGFVVITIDTNSTLDQPSSRSSQQMAALRQVASLNGTSSSPIYGKVDTARMGVMGWSMGGGGSLISAANNPSLKAAAPQAPGYQLPKAGISGAWTTQSLAPAAVGLDAQGVPLINKSFSDADLHLLSQAILGTCDALDGLADGIVDNYRACQAAFDPATAANPANGQALQCVGAKTADCLSPVQVTAIKRAMAGPVNSAGTPLYNRWAWDAGMSGLSGTTYNQGWRSWWLGSFNSSANNAQRVSGFSARSWLVDFATPPEPMPMTQVAARMMKFDFDIDPLKIWATSGQFTQSSMDWHGATSTSSVTVPTLIFACENDSIAPVNSSALPIYDSMSRNAKQFLEINGGSHSCANSGNSNQALIGKKGVAWMKRFMDNDTRYSTFACENPNSTRVSDFRTANCS
As to B6, the “Proxy for plastic degradation” value worked out at 0.11.

B7: unnamed (protein)
chain: MQTTVTTMLLASVALAACAGGGSTPLPLPQQQPPQQEPPPPPVPLASRAACEALKDGNGDMVWPNAATVVEVAAYVPAGVNISMADNPSICGGDEDPITSTFAFCEVSGAIAKRTGIDGYPYEIKFRLRMPAEWNGRFFMEGGSGTNGCLSAATGSIGGGQIASALSRNFATIATDGGHDNAVNDNPDALGTVAFGLDPQARLDMGYNSYDQVTQAGKAAVARFYGRAADKSYFIGCSEGGREGMMLSQRFPSHYDGIVAGAPGYQLPKAGISGAWTTQSLAPAAVGLDAQGVPLINKSFSDADLHLLSQAILGTCDALDGLADGIVDNYRACQAAFDPATAANPANGQALQCVGAKTADCLSPVQVTAIKRAMAGPVNSAGTPLYNRWAWDAGMSGLSGTTYNQGWRSWWLGSFNSSANNAQRVSGFSARSWLVDFATPPEPMPMTQVAARMMKFDFDIDPLKIWATSGQFTQSSMDWHGATSTDLAAFRDRGGKMILYHCMSDAAFSALDTADYYERLGAAMPGAAGFARLFLVPGMNHCCGGPGTDRFDMLTPLVAWVERGEAPDQISAWSGTPGYFGVAARTRPLCPYPQIARYKGSGDINTEANFACAAPP
For B7, the “Proxy for plastic degradation” value was determined as 0.16.

B8: unnamed (protein)
chain: MQTTVTTMLLASVALAACAGGGSTPLPLPQQQPPQQEPPPPPVPLASRAACEALKDGNGDMVWPNAATVVEVAAWRDAAPATASAAALPEHCEVSGAIAKRTGIDGYPYEIKFRLRMPAEWNGRFFMEGGSGTNGSLSAATGSIGGGQIASALSRNFATIATDGGHDNAVNDNPDALGTVAFGLDPQARLDMGYNSYDQVTQAGKAAVARFYGRAADKSYFIGWSEGGREGMMLSQRFPSHYDGIVAGAPWDSSTNFDLAAFRDRGGKMILYHGMSDAAFSALDTADYYERLGAAMPGAAGFARLFLVPGMNHSSGGPGTDRFDMLTPLVAWVERGEAPDQISAWSGTPGYFGVAARTRPLCPYPQIARYKGSGDINTEANFACAAPP
Take B8: the “Proxy for plastic degradation” value stood at 0.1.

B9: unnamed (protein)
chain: MQTTVTTMLLASVALAACAGGGSTPLPLPQQQPPQQEPPPPPVPLASRAACEALKDGNGDMVWPNAATVVEVAAWRDAAPATASAAALPEHCEVSGAIAKRTGIDGYPYEIKFRLRMPAEWNGRFFMEGGSGTNGSLSAATGSIGGGQIASALSRNFATIATDGGHDNAVNDNPDALGTVAFGLDPQARLDMGYNSYDQVTQAGKAAVARFYGRAADKSYFIGHSEGGREGMMLSQRFPSHYDGIVAGAPWDSSTNFDLAAFRDRGGKMILYHGMSDAAFSALDTADYYERLGAAMPGAAGFARLFLVPGMNHFSGGPGTDRFDMLTPLVAWVERGEAPDQISAWSGTPGYFGVAARTRPLCPYPQIARYKGSGDINTEANFACAAPP
In the case of B9, the “Proxy for plastic degradation” value turned out to be 0.06.

B10: unnamed (protein)
chain: MQTTVTTMLLASVALAACAGGGSTPLPLPQQQPPQQEPPPPPVPLASRAACEALKDGNGDMVWPNAATVVEVAAWRDAAPATASAAALPEHCEVSGAIAKRTGIDGYPYEIKFRLRMPAEWNGRFFMEGGSGTNGSLSAATGSIGGGQIASALSRNFATIATDGGHDNAVNDNPDALGTVAFGLDPQARLDMGYNSYDQVTQAGKAAVARFYGRAADKSYFIGCSEGGREGMMLSQRFPSHYDGIVAGAPWDSSTNFDLAAFRDRGGKMILYHGMSDAAFSALDTADYYERLGAAMPGAAGFARLFLVPGMNHCSGGPGTDRFDMLTPLVAWVERGEAPDQISAWSGTPGYFGVAARTRPLCPYPQIARYKGSGDINTEANFACAAPP
Consider B10, for which the “Proxy for plastic degradation” value turned out to be 0.05.
